Assay [1] relates to Cdx2 expression in trophoblast stem cells of ES-TS aggregates. In words: Cdx2 expression by CDX2 immunostaining. As to conditions: CDX2 immunostaining (FIG. 4g). The class given is cell-based, mouse. The method, then:
• Double layer formation: the formation of an (at least) double layered cell aggregate with an external layer of TS cells and an inner layer of ES cells is evaluated using transgenic cell lines. Specifically, ES cells were transfected with Histone 2B and a Red Fluorescent Protein under the control of a cytomegalovirus promoter and clonally derived. The H2B-RFP ES cells are thus constitutively expressing a red fluorescence within their nucleus which allows for their tracking. • TS cells were derived from a mouse constitutively expressing Green Fluorescent Protein (GFP) under the control of a cytomegalovirus promoter in all cells. The GFP TS cells are thus expressing a green fluorescence in their cytoplasma which allows for their tracking. • The formation of a double-layered aggregate is thus assessed by observing a green outer layer of cells and a red inner layer of cells. The efficiency of engulfment is determined as the percentage of green-colored projection area (representing the TS cell layer) that overlaps with an artificial 3-pixel-wide ring drawn around the red-colored projection area (representing the inner aggregate of ES cells) after 24 hours of culturing the ES-TS cell clusters. […] The formation of a cavity is preferably assessed using the cross-sectional section of a cellular aggregate stained with a nuclear-specific dye (for example DAPI). […]

Assay [2] deals with ES-TS cell clusters. Briefly: Cavitation of ES-TS cell clusters (yield of cavitated blastoids). The class given is cell-based, mouse. Particulars: FIG. 4h; CHIR99021 at 3 uM. The method, then:
FIG. 4c: […], The yield of cavitated blastoids is described by the percentage of ES-TS cell clusters that were cavitated after 96 hours of culture, thus forming an artificial blastocyst or blastoid. […]
The efficiency of blastoid formation is measured as the percentage of cavitated structures with (1) an external cellular layer expressing the transcription factors CDX2, Eomes and GATA3 and (2) an internal cellular aggregate expressing the transcription factors Oct4 and Sox2 and at least partly Nanog.
The formation of a cavity is assessed by the formation of a volume within the aggregate that is not occupied by cellular nucleus. The formation of a cavity is preferably assessed using the cross-sectional section of a cellular aggregate stained with a nuclear-specific dye (for example DAPI).
• Double layer formation: the formation of an (at least) double layered cell aggregate with an external layer of TS cells and an inner layer of ES cells is evaluated using transgenic cell lines. […] The H2B-RFP ES cells are thus constitutively expressing a red fluorescence within their nucleus which allows for their tracking. • TS cells were derived from a mouse constitutively expressing Green Fluorescent Protein (GFP) under the control of a cytomegalovirus promoter in all cells. […]

B1: HB-EGF: a protein and a growth factor known in the art to activate the MAPK signalling pathway (protein, UniProt Q99075 63-148, looked up)
Heparin-binding EGF-like …: DLQEADLDLLRVTLSSKPQALATPNKEEHGKRKKKGKGLGKKRDPCLRKYKDFCIHGECKYVKELRAPSCICHPGYHGERCHGLSL
modifications: Heparin-binding EGF-like growth factor
With B1, the Cdx2 expression result in assay [1] is on record as “positively correlates with an increase of Cdx2 expression”.

B2: Wnt3a: Wnt ligand (protein, UniProt P56704 19-352, looked up)
Protein Wnt-3a: SYPIWWSLAVGPQYSSLGSQPILCASIPGLVPKQLRFCRNYVEIMPSVAEGIKIGIQECQHQFRGRRWNCTTVHDSLAIFGPVLDKATRESAFVHAIASAGVAFAVTRSCAEGTAAICGCSSRHQGSPGKGWKWGGCSEDIEFGGMVSREFADARENRPDARSAMNRHNNEAGRQAIASHMHLKCKCHGLSGSCEVKTCWWSQPDFRAIGDFLKDKYDSASEMVVEKHRESRGWVETLRPRYTYFKVPTERDLVYYEASPNFCEPNPETGSFGTRDRTCNVSSHGIDGCDLLCCGRGHNARAERRREKCRCVFHWCCYVSCQECTRVYDVHTCK
Consider B2, for which the “yield of cavitated blastoids / cavitation” value in assay [2] was “increases the yield of cavitated blastoids”.

Source of the values: patent US9822336B2, “Blastoid, cell line based artificial blastocyst” (Universiteit Maastricht, priority 2013, dated 2017).
